Source: patent publication US8080531B2, “Methods for modulating checkpoint activation through TopBP1” (California Institute of Technology, priority 2006, dated 2011)

Tested on: Xatr-Xatrip
Assay: Kinase assay of Xatr-Xatrip complexes isolated from Xenopus egg extracts
Assay type: biochemical
Settings: for activation of Xatr kinase activity toward PHAS-I: isolated Xatr-Xatrip complexes, 32P-ATP, result in words; for ATR activation compared with the 972-1279 fragment: Xatr-XatripΔ222, PHAS-I, His6-human TopBP1 fragments
From the text: Specifically, Applicants first isolated Xatr from egg extracts by pull-downs with FLAG-tagged Xenopus ATRIP (Xatrip). For these experiments, Applicants used both full-length Xatrip and an N-terminal truncation mutant (ΔN222) that supports normal Xatr-dependent activation of Xchk1 in egg extracts (Kumagai et al., 2004; Kim et al., 2005).
Applicants eluted the beads with FLAG peptide and mixed the eluates with a His6-tagged version of XtopBP1 that had been purified from baculovirus-infected insect cells (FIG. 1B). Finally, Applicants added ^32P-ATP and PHAS-I, a commonly used model substrate for ATR (Abraham, 2001).
Xatrip-FLAG and XatripΔN222-FLAG (20 ng/μl each) were incubated in interphase extracts containing anti-FLAG M2 antibody beads (Sigma) for 60 min at room temperature. The beads were isolated and washed twice with buffer A (10 mM HEPES-KOH (pH 7.5), 150 mM NaCl, 0.1% CHAPS, and 2.5 mM EGTA) and twice with HEPES-buffered saline (HBS; 10 mM HEPES-KOH (pH 7.5) and 150 mM NaCl). Xatr-Xatrip complexes were eluted in one-tenth the volume of the egg extract in HBS containing 0.1 mg/ml 3×-FLAG peptide (Sigma) for 60 min at 4° C. Eluates (2 μl) were used for kinase assays as described below.
Samples were incubated in 20 μl kinase buffer (50 mM Tris-HCl (pH 7.5), 10 mM MgCl2, 1 mM dithiothreitol, 100 μM nonradioactive ATP, and 100 μCi/ml [γ-^32P]ATP) containing 12.5 μg/ml PHAS-I or 50 μg/ml GST-Xmcm2 (62-122) for 30 min at room temperature. GST-XtopBP1 (972-1279) was added at a final concentration of 100 μg/ml unless indicated otherwise. In some cases, GST-Xmcm2 (62-122), GST-Xchk1 (306-352), or full-length Xchk1-Myc-His6 were used as substrates with only […] nonradioactive ATP. Reactions were terminated by boiling in gel sample buffer.

Sequence of Xatr-Xatrip (Q9DE14 whole entry, the tested form may be a part): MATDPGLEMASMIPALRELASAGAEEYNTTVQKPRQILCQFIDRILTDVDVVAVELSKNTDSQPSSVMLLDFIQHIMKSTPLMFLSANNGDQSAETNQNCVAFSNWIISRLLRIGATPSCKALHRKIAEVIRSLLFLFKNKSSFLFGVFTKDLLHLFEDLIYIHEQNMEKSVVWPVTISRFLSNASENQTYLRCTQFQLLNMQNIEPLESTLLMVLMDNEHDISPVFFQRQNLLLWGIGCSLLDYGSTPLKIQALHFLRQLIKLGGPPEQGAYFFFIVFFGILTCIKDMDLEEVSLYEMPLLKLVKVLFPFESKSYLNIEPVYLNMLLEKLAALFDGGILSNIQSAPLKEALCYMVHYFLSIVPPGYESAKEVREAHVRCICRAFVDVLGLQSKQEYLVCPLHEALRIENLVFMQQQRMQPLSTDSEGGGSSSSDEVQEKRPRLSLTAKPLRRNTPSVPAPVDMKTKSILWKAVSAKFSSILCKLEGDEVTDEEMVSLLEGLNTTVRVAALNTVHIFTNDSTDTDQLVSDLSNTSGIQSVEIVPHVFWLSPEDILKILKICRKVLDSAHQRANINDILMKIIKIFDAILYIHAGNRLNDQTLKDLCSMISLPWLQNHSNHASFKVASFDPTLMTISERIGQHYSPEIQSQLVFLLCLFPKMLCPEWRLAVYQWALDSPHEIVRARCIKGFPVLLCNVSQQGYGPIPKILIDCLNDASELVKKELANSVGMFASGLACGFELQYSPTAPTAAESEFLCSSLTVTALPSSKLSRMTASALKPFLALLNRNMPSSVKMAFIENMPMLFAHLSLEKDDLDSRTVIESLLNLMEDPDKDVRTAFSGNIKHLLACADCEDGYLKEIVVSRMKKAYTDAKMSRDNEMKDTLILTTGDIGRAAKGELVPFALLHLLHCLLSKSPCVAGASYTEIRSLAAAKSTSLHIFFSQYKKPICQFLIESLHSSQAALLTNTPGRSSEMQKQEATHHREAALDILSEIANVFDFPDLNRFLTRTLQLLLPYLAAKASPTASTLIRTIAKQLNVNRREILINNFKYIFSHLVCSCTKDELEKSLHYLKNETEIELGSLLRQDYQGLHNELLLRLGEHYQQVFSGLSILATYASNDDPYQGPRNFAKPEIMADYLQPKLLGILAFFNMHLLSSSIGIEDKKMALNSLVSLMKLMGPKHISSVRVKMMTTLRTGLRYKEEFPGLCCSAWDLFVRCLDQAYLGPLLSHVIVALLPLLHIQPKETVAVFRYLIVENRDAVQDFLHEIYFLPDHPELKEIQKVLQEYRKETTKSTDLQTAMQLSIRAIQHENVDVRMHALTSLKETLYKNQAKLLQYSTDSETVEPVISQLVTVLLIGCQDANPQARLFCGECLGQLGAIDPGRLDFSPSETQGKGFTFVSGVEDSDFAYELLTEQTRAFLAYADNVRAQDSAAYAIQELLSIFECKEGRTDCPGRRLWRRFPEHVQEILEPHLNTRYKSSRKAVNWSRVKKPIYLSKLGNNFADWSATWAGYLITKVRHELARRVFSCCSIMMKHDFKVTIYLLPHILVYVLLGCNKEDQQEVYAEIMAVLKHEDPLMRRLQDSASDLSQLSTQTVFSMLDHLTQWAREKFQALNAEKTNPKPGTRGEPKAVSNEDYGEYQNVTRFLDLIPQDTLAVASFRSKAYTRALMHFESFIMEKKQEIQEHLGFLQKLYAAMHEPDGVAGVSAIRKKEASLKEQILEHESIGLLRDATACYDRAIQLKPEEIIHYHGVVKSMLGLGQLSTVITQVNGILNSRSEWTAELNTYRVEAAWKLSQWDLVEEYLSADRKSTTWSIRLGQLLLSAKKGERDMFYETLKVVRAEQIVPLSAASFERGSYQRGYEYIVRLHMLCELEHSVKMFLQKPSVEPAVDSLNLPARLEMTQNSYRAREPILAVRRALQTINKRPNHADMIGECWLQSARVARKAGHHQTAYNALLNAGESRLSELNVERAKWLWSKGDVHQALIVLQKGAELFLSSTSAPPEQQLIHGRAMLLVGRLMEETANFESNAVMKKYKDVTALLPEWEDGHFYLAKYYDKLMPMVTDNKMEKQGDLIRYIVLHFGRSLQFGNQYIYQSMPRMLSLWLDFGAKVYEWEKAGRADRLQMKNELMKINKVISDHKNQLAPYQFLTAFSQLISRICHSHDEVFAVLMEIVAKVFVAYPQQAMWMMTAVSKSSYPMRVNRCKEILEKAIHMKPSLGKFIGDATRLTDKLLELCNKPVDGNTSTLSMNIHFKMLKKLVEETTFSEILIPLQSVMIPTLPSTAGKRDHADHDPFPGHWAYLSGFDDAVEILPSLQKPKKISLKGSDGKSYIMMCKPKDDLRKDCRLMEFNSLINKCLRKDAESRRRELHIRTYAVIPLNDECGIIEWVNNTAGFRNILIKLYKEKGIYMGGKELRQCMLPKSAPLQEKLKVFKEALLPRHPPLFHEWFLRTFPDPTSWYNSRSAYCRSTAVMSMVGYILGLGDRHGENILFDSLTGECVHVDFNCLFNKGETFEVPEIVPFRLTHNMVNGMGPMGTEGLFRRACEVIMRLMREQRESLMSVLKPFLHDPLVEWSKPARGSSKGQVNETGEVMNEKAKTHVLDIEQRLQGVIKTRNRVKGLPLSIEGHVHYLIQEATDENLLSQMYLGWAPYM

human TopBP1 (residues 978-1192): GST fusion fragment of human TopBP1 (residues 978-1192) from between BRCT domains VI and VII
activation of Xatr kinase activity toward PHAS-I: activated Xatr-Xatrip very effectively

residues 978-1192: His6-Human TopBP1 fragment containing residues 978-1192
ATR activation compared with the 972-1279 fragment: almost as effective as the 972-1279 fragment

B1: 1008-1286 fragment: His6-Human TopBP1 fragment, residues 1008-1286 (protein)
chain: RLCNSRLLSAVSSTKDDEPDPLILEENDVDNMATNNKESAPSNGSGKNDSKGVLTQTLEMRENFQKQLQEIMSATSIVKPQGQRTSLSRSGCNSASSTPDSTRSARSGRSRVLEALRQSRQTVPDVNTEPSQNEQIIWDDPTAREERARLASNLQWPSCPTQYSELQVDIQNLEDSPFQKPLHDSEIAKQAVCDPGNIRVTEAPKHPISEELETPIKDSHLIPTPQAPSIAFPLANPPVAPHPREKIITIEETHEELKKQYIFQLSSLNPQERIDYCHL
modifications: left off: small tags and cut ends
ATR activation compared with the 972-1279 fragment: slight, but not very significant reduction

B2: residues 1050-1192: His6-Human TopBP1 fragment containing residues 1050-1192 (protein, UniProt Q92547 1050-1192, looked up, fragment)
chain: NGSGKNDSKGVLTQTLEMRENFQKQLQEIMSATSIVKPQGQRTSLSRSGCNSASSTPDSTRSARSGRSRVLEALRQSRQTVPDVNTEPSQNEQIIWDDPTAREERARLASNLQWPSCPTQYSELQVDIQNLEDSPFQKPLHDS
modifications: His6 tag
ATR activation compared with the 972-1279 fragment: almost as effective as the 972-1279 fragment

B3: XtopBP1Δ993-1196: full-length version of XtopBP1 in which most of the ATR-activating domain had been deleted (protein)
chain: MASSENEPFCVKFIKSPENSEYFFKAYEAIKQIQSDESLQLTEEREALLLKEKDKSLYICDPFSGAAFSHLKKLGCRIVGPQVVIFCMENQRRVPRAEYPVYNMAMADVTISCTSLDKETREDVHHYVQIMGGCVYRDLNVSVTHLIAGEVGSKKYLVAASLEKPILLPSWVKELWEKSNQRIIRYSDVNMTEYLCPIFRGCTICVTGLSSLDRKEVQRLTALHGGEYTGQLKMNESTHLIVQEAKGQKYECARKWNVHCISVQWFFDSIEKGFCQDETMYKIEPASTIKSVPDTSTPTGGNSKPNSRALYDVSQISNISTSCVNESAFNSAMASRLDPPADTLENLDISSLQAPDDLLDGCRIYLCGFGGRKLDKLRKLINNGGGVRFNQLTGDVTHIIVGETDEELKQFLNKTQHRPYVLTVKWLLDSFAKGHLQPEEIYFHSSYQQTEMPSPFEPAINLTANKMSSTRGPLNHTRNHQADEDLLSQYTENNSTLIEDEHPKTSNTNSISQMSMHEDMTTCTSQSGLADTSTIIEGGLFSRKQFMVLGFLEEDEACIIDIIKKSAGKVLSSQKRAIADYAVVPLLGCEVESTVGEVVTNAWLGMCIEQEKLLDPHSNALFTPVPFLEGSTPLRECVLSVSQFMGAERDSLVYLAGLLGAKVQEFFVRKANPKKGMFASTHLVLKDAEGSKYEAAKKWNLPAVTMNWLLQCARTGRKADEDSYLVDNVPEEDKDESFISQTYKPQAIRLSMHAPCHLENHPEALTKAAVTPLDMNRFKSKAFQSVISQHNKNPQTSGGESKVLQREPSLHLDTPSKFLSKDKLFKPSFDVKDALAALETPGGPNQKNRTQSTPLSEVIGRNLQLAIANSTRQTAAVTASPQLKAAEKKEFDNSKLLINVVICVSKKLIKKQGELNGIAASLGAEYRWCFDESVTHFIYHGRQNDMSREYKSVKERSGIYIVSEHWLFACSEQQKRVPEALYPHTYNPKMSLEFEPKSAMRTPVIENNLQSPTKPDHLTPTPQAPSIAFPLANPPVAPQPREKPVQPFSKEETLKERRFQLSSLDPQERIDYSQLIEELGGVVIEKQCFDPSCTHIVVGHPLRNEKYLASMAAGKWVLHRSYLEACRAAKRFIQEEDYEWGSISILSAVTNINPQQRMLAEAAMRWRKKLQGIKQNMGIAEGAFSGWKVILNVDQTKEPGFKRLLQSGGAKVFAGHSSPLFKEASHLFADFSKLKPDEPRVNVAEAAAQGVNCLKPEYIADYLMKELPPPMNNYCLPDAIPYVRVTGTGLSRKRKTSGDVSDVKRSRHY
modifications: left off: small tags and cut ends
activation of Xatr kinase activity toward PHAS-I: no Xatr-activating capacity
